Test results: patent US20260265393A1

Assays:
[1] = molecular target: CD27-mFc (Kangdai) (human) (UniProt P26842); test: competition ELISA: coated CD70 (1 ug/mL), CD27-mFc fixed at 4.3 ug/mL plus antibody dilution, HRP anti-mouse Fc detection; blocked ligand CD70 (Example 3.5)
[2] = molecular target: human CD27 (transmembrane protein) on the cell membrane (human) (UniProt P26842); test: flow cytometry on human PBMC, antibody 5 ug/mL, CD3 FITC-A against APC-A (Example 3.3); other quadrants printed: Q2-UL 16.97 %, Q2-LL 27.93 %, Q2-LR 8.25 %
[3] = molecular target: human CD27 (transmembrane protein) on the cell membrane (human) (UniProt P26842); test: flow cytometry on CHO cells expressing human CD27
[4] = molecular target: antigen CD27 (soluble, as used in the BLI and SPR experiments) (UniProt P26842); test: BLI, antibody captured on AHC probe, CD27 in solution
[5] = molecular target: human CD27 (transmembrane protein) on the cell membrane (human) (UniProt P26842); test: flow cytometry on human PBMC, antibody 5 ug/mL, CD19 PE-A against APC-A (Example 3.3); other quadrants printed: Q3-UL 15.04 %, Q3-LL 29.25 %, Q3-LR 51.11 %
[6] = molecular target: CD27-mFc (Kangdai) (human) (UniProt P26842); test: competition ELISA: CD70 coated, CD27-mFc plus antibody dilutions; competitor CD70
[7] = molecular target: CD27-mFc (Kangdai) (human) (UniProt P26842); test: ELISA on coated CD27-mFc (1 ug/mL), AP anti-human Fc detection, absorption at 405/490 nm (Example 15.2)
[8] = molecular target: CD27-mFc (Kangdai) (human) (UniProt P26842); test: ELISA on coated CD27-mFc

Sequence of antigen CD27 (soluble, as used in the BLI and SPR experiments) (P26842 21-192 limits assumed): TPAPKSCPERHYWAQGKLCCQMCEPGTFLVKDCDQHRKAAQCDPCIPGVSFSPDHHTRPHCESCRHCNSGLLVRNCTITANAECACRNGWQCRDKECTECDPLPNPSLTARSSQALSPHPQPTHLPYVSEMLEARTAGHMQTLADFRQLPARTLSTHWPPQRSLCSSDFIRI
Sequence of CD27-mFc (Kangdai) (human) (P26842 21-192 limits assumed): as above
Sequence of human CD27 (transmembrane protein) on the cell membrane (human) (P26842 20-260): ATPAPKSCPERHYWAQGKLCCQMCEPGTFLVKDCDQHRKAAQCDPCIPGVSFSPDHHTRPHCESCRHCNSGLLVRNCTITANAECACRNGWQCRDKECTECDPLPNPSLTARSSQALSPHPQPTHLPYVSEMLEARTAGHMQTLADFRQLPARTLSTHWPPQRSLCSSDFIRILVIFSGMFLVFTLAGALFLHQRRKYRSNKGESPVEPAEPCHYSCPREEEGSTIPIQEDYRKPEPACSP

IC50 (read off the curve) [1]: 1 µg/mL | Q2-UR, percent of gated cells that are CD3 FITC+ and APC+ (antibody-stained) [2]: 46.9% | EC50 [3]: 2.87 µg/mL | Kd [4]: 0.696 nM | koff [4]: 8.75e-05 s⁻¹ | kon [4]: 126000 M⁻¹ s⁻¹ | Q3-UR, percent of gated cells that are CD19 PE+ and APC+ (antibody-stained) [5]: 4.6% | IC50 [6]: 1.31 µg/mL | EC50 [7]: 0.032 µg/mL | EC50 [8]: 0.0381 µg/mL
Substance: CD27 monoclonal antibody Varlilumab (1F5)
